In patent US20030113322A1 (published 2003):
Blank lines part the entries; values can stand above or below the binder they belong to. No end group written: not given here.

Target: T1, biotinylated recombinant human soluble CD4 (rhCD4, Repligen) (human, UniProt P01730 26-396, limits assumed, biotinylated (sites not given))
T1 construct: Soluble form, bought; biotinylated with a commercial reagent; also called biotinylated-rhCD4
Experiment: Spot: cellulose-bound dodecapeptide, 20 nM biotinylated rhCD4
Method: The saturated membrane was incubated with a 20 nM solution of biotinylated-rhCD4 for 2 h at 37° C. Bound biotinylated-rhCD4 was detected by incubating the membrane for 1 h at 37° with a 1:3000 solution of alkaline phosphatase-conjugated streptavidin (Sigma, St. Louis, Mo., USA) and subsequent addition of 5-bromo-4-chloro-3-indolyl phosphate substrate. […] In all cases, the reactivity of the spots was evaluated by scanning the membrane and measuring the intensities of the spots with the NIH image 1.61 software.
The anti-CD4 immunoreactivity of these peptides was assessed by incubating the membrane with biotinylated-rhCD4.

binding result: binds
B1: cellulose-bound dodecapeptide 30 of the 13B8.2 VH sequence (linear form of CB2) (peptide)
peptide: TTFGVHWVRQSP
modifications: also: bound to cellulose membrane (Spot synthesis)
notes: also called VH peptide 30

binding result: binds
B2: cellulose-bound dodecapeptide 29 of the 13B8.2 VL sequence (linear form of CB8) (peptide)
peptide: IYSYLAWYQQKQ
modifications: also: bound to cellulose membrane (Spot synthesis)
notes: also called VL peptide 29

binding result: binds
B3: cellulose-bound dodecapeptide 29 of the 13B8.2 VH sequence (linear form of CB1) (peptide)
peptide: LTTFGVHWVRQS
modifications: also: bound to cellulose membrane (Spot synthesis)
notes: also called VH peptide 29
